Here are results for one protein from article PMC8195987, “Structural basis for plazomicin antibiotic action and resistance” (Communications Biology, 2021).

This data set concerns the molecule itself. The data set is described as follows: crystal structure; AAC(2′)-Ia at 10 mg/mL with 10 mM acetyl-CoA and 10 mM plazomicin, sitting-drop vapor diffusion at 4 °C, reservoir 0.2 M LiCl and 40% (v/v) MPD; product-bound state (acetylated plazomicin and CoA).

B1: AAC(2′)-Ia from Providencia stuartii (enzyme)
chain: MGIEYRSLHTSQLTLSEKEALYDLLIEGFEGDFSHDDFAHTLGGMHVMAFDQQKLVGHVAIIQRHMALDNTPISVGYVEAMVVEQSYRRQGIGRQLMLQTNKIIASCYQLGLLSASDDGQKLYHSVGWQIWKGKLFELKQGSYIRSIEEEGGVMGWKADGEVDFTASLYCDFRGGDQW
notes: AAC(2′)-Ia, aminoglycoside 2′-N-acetyltransferase of Providencia stuartii; synthesized aac(2′)-Ia gene cloned in pET-15b between NdeI and BamHI, N-terminal HIS-tag followed by a thrombin cleavage site; the tag was removed with thrombin; Homodimer in the crystal, each unit with acetylated plazomicin and CoA in the active site; also called aminoglycoside 2′-N-acetyltransferase; AAC(2′)-Ia …
As to B1, the binding result is listed as “binds”.
